Changes are numbered by the printed parent chain.
What was measured:
Test in all cases: cell-based or functional assay
[1] = biological target: T1, human GPRC5D (human, UniProt Q9NZD1 1-345)
[2] = biological target: T1, human GPRC5D; remark: listed apart in the source
[3] = biological target: T2, B-cell maturation antigen (BCMA) (UniProt Q02223 1-184, limits assumed)
T2 sequence (looked up): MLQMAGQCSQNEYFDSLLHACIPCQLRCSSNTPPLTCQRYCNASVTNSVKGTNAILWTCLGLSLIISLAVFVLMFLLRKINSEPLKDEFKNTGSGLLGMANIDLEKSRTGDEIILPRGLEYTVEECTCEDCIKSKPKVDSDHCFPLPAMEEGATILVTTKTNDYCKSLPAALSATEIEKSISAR

[4] = biological target: T1, human GPRC5D; remark: listed apart in the source

T1 sequence (Q9NZD1 whole entry): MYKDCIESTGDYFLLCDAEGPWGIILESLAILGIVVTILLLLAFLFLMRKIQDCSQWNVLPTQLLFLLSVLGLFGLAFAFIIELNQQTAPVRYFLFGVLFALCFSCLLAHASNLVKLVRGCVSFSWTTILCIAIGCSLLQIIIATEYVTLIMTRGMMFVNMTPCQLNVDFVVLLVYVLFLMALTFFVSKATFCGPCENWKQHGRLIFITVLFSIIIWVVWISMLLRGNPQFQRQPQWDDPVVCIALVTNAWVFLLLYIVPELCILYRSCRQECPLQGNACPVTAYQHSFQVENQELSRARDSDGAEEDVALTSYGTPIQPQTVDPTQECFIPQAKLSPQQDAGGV

B1: 5E11-TCB (bispecific antibody, human IgG1, kappa, L234A L235A)
light 1: DIVLTQSPALAVSPGQRATISCRASQSVSISGINLMNWYQQKPGQQPKLLIYHASILASGIPTRFSGSGSGTDFTLTIDPVQADDIATYYCQQTRESPLTFGSGTNLEIKRTVAAPSVFIFPPSDRKLKSGTASVVCLLNNFYPREAKVQWKVDNALQSGNSQESVTEQDSKDSTYSLSSTLTLSKADYEKHKVYACEVTHQGLSSPVTKSFNRGEC
light 2: EVQLLESGGGLVQPGGSLRLSCAASGFTFSTYAMNWVRQAPGKGLEWVSRIRSKYNNYATYYADSVKGRFTISRDDSKNTLYLQMNSLRAEDTAVYYCVRHGNFGNSYVSWFAYWGQGTLVTVSSASVAAPSVFIFPPSDEQLKSGTASVVCLLNNFYPREAKVQWKVDNALQSGNSQESVTEQDSKDSTYSLSSTLTLSKADYEKHKVYACEVTHQGLSSPVTKSFNRGEC
heavy 1: ELQLEQSGGGLVQPGGSLTLSCAASGFTFSKYAMAWVRQAPTKGLEWVASISTGGVNTYYRDSVKARFTISRDNAKNTQYLQMDSLRSEDTATYYCATHTGDYFDYWGQGVMVTVSSASTKGPSVFPLAPSSKSTSGGTAALGCLVEDYFPEPVTVSWNSGALTSGVHTFPAVLQSSGLYSLSSVVTVPSSSLGTQTYICNVNHKPSNTKVDEKVEPKSCDKTHTCPPCPAPEAAGGPSVFLFPPKPKDTLMISRTPEVTCVVVDVSHEDPEVKFNWYVDGVEVHNAKTKPREEQYNSTYRVVSVLTVLHQDWLNGKEYKCKVSNKALGAPIEKTISKAKGQPREPQVCTLPPSRDELTKNQVSLSCAVKGFYPSDIAVEWESNGQPENNYKTTPPVLDSDGSFFLVSKLTVDKSRWQQGNVFSCSVMHEALHNHYTQKSLSLSPGK
heavy 2: not shown
EC50 of T cell mediated killing, AMO-1 cells (LDH release) [1]: 0.014 nM | EC50 of T cell mediated killing, L363 cells (LDH release) [1]: 0.012 nM | EC50 of T cell mediated killing, NCI-H929 cells (LDH release) [1]: 7 pM | EC50 of T cell mediated killing, RPMI-8226 cells (LDH release) [1]: 0.024 nM | EC50 of in vitro killing, AMO-1 [2]: 8 pM | EC50 of in vitro killing, EJM [2]: 11 pM | EC50 of in vitro killing, L363 [2]: 17 pM | EC50 of in vitro killing, MOLP-2 [2]: 18 pM | EC50 of in vitro killing, NCI-H929 [2]: 7 pM | EC50 of in vitro killing, OPM-2 [2]: 2 pM | EC50 of in vitro killing, RPMI [2]: 64 pM

B2: BCMA-TCB (bispecific antibody, human IgG1, kappa, L234A L235A)
heavy 1: EVQLLESGGGLVQPGGSLRLSCAASGFTFSSYAMNWVRQAPGKGLEWVSAITASGGSTYYADSVKGRFTISRDNSKNTLYLQMNSLRAEDTAVYYCARYWPMSLWGQGTLVTVSSASTKGPSVFPLAPSSKSTSGGTAALGCLVEDYFPEPVTVSWNSGALTSGVHTFPAVLQSSGLYSLSSVVTVPSSSLGTQTYICNVNHKPSNTKVDEKVEPKSCDKTHTCPPCPAPEAAGGPSVFLFPPKPKDTLMISRTPEVTCVVVDVSHEDPEVKFNWYVDGVEVHNAKTKPREEQYNSTYRVVSVLTVLHQDWLNGKEYKCKVSNKALGAPIEKTISKAKGQPREPQVCTLPPSRDELTKNQVSLSCAVKGFYPSDIAVEWESNGQPENNYKTTPPVLDSDGSFFLVSKLTVDKSRWQQGNVFSCSVMHEALHNHYTQKSLSLSPGK
light 1: EIVLTQSPGTLSLSPGERATLSCRASQSVSAYYLAWYQQKPGQAPRLLMYDASIRATGIPDRFSGSGSGTDFTLTISRLEPEDFAVYYCQQYERWPLTFGQGTKVEIKRTVAAPSVFIFPPSDRKLKSGTASVVCLLNNFYPREAKVQWKVDNALQSGNSQESVTEQDSKDSTYSLSSTLTLSKADYEKHKVYACEVTHQGLSSPVTKSFNRGEC
heavy 2: not shown
light 2: B1 light 2
EC50 of in vitro killing, AMO-1 [3]: 518 pM | EC50 of in vitro killing, EJM [3]: 132 pM | EC50 of in vitro killing, L363 [3]: 127 pM | EC50 of in vitro killing, MOLP-2 [3]: 32 pM | EC50 of in vitro killing, NCI-H929 [3]: 311 pM | EC50 of in vitro killing, OPM-2 [3]: 33 pM | EC50 of in vitro killing, RPMI [3]: 11 pM

B3: 5F11-TCB (bispecific antibody, human IgG1, kappa, L234A L235A)
light 1: DIVMTQAPLSVSVTPGESASISCRSSKSLLHSNGITYVYWYFQKPGKSPQVLIYRMSNLASGVPDRFSGSGSETDFTLKISRVEAEDVGIYHCGQLLENPYTFGAGTELELKRTVAAPSVFIFPPSDRKLKSGTASVVCLLNNFYPREAKVQWKVDNALQSGNSQESVTEQDSKDSTYSLSSTLTLSKADYEKHKVYACEVTHQGLSSPVTKSFNRGEC
light 2: B1 light 2
heavy 1: EVQLVESGGGLVQPGRSLKLSCAASGFSFSNYGMAWVRQAATKGLEWVASISTGGGNTYYRDSVKGRFIVSRDNAKNTQYLQMDSLRSEDTATYYCTRHDRGGLYWGQGVMVTVSSASTKGPSVFPLAPSSKSTSGGTAALGCLVEDYFPEPVTVSWNSGALTSGVHTFPAVLQSSGLYSLSSVVTVPSSSLGTQTYICNVNHKPSNTKVDEKVEPKSCDKTHTCPPCPAPEAAGGPSVFLFPPKPKDTLMISRTPEVTCVVVDVSHEDPEVKFNWYVDGVEVHNAKTKPREEQYNSTYRVVSVLTVLHQDWLNGKEYKCKVSNKALGAPIEKTISKAKGQPREPQVCTLPPSRDELTKNQVSLSCAVKGFYPSDIAVEWESNGQPENNYKTTPPVLDSDGSFFLVSKLTVDKSRWQQGNVFSCSVMHEALHNHYTQKSLSLSPGK
heavy 2: not shown
EC50 of T cell mediated killing, AMO-1 cells (LDH release) [1]: 0.003 nM | EC50 of T cell mediated killing, L363 cells (LDH release) [1]: 0.001 nM | EC50 of T cell mediated killing, NCI-H929 cells (LDH release) [1]: 1 pM | EC50 of T cell mediated killing, RPMI-8226 cells (LDH release) [1]: 0.002 nM | EC50 of in vitro killing, AMO-1 [2]: 6 pM | EC50 of in vitro killing, EJM [2]: 3 pM | EC50 of in vitro killing, L363 [2]: 3 pM | EC50 of in vitro killing, MOLP-2 [2]: 1 pM | EC50 of in vitro killing, NCI-H929 [2]: 4 pM | EC50 of in vitro killing, OPM-2 [2]: 1 pM | EC50 of in vitro killing, RPMI [2]: 6 pM

B4: ET150-5-TCB (bispecific antibody, human IgG1, lambda, L234A L235A)
light 1: QSVLTQPPSASGTPGQRVTISCSGSRSNVGGNYVFWYQQVPGATPKLLIYRSNQRPSGVPDRFAGSKSGSSASLAISGLRSEDEADYYCATWDDSLSGFVFGTGTKVTVLGQPKAAPSVTLFPPSSKKLQANKATLVCLISDFYPGAVTVAWKADSSPVKAGVETTTPSKQSNNKYAASSYLSLTPEQWKSHRSYSCQVTHEGSTVEKTVAPTECS
light 2: B1 light 2
heavy 1: EVQLVESGGGLVKPGGSLRLSCAASGFTFSDYYMSWIRQAPGKGLEWVSYISSSGSTIYYADSVKGRFTISRDNAKNSLYLQMNSLRAEDTAVYYCARGYGKAYDQWGQGTLVTVSSASTKGPSVFPLAPSSKSTSGGTAALGCLVEDYFPEPVTVSWNSGALTSGVHTFPAVLQSSGLYSLSSVVTVPSSSLGTQTYICNVNHKPSNTKVDEKVEPKSCDKTHTCPPCPAPEAAGGPSVFLFPPKPKDTLMISRTPEVTCVVVDVSHEDPEVKFNWYVDGVEVHNAKTKPREEQYNSTYRVVSVLTVLHQDWLNGKEYKCKVSNKALGAPIEKTISKAKGQPREPQVCTLPPSRDELTKNQVSLSCAVKGFYPSDIAVEWESNGQPENNYKTTPPVLDSDGSFFLVSKLTVDKSRWQQGNVFSCSVMHEALHNHYTQKSLSLSPGK
heavy 2: not shown
EC50 of T cell mediated killing, AMO-1 cells (LDH release) [1]: 0.0835 nM | EC50 of T cell mediated killing, L363 cells (LDH release) [1]: 0.768 nM | EC50 of T cell mediated killing, NCI-H929 cells (LDH release) [1]: 833 pM | EC50 of T cell mediated killing, RPMI-8226 cells (LDH release) [1]: 0.797 nM

B5: P1AE5722 (antibody, V domains shown)
VH: EVQLLESGGGLVQPGGSLRLSCAASGFTFSKYAMAWVRQAPGKGLEWVASISTGGVNTYYADSVKGRFTISRDNSKNTLYLQMNSLRAEDTAVYYCATHTGDYFDYWGQGTMVTVSS
VL: EIVLTQSPGTLSLSPGERATLSCRASQSVSISGINLMNWYQQKPGQQPRLLIYHASILASGIPDRFSGSGSGTDFTLTISRLEPEDFAVYYCQQTRESPLTFGQGTRLEIK
CAR-J2 EC50 [4]: 4.6 ng/mL

B6: P1AE5731 (antibody, V domains shown)
VH: B5 VH with V2L, S75A
VL: DIQMTQSPSSLSASVGDRVTITCRASQSVSISGINLMNWYQQKPGQQPKLLIYHASILASGVPSRFSGSGSGTDFTLTISSLQPEDFATYYCQQTRESPLTFGQGTRLEIK
CAR-J2 EC50 [4]: 2.3 ng/mL

B7: P1AE5730 (antibody, V domains shown)
VH: B5 VH with V2L, S75A
VL: B6 VL with Q46K
CAR-J2 EC50 [4]: 3.5 ng/mL

B8: P1AE5712 (antibody, V domains shown)
VH: B5 VH with A61R, G66A
VL: B6 VL with Q46K
CAR-J2 EC50 [4]: 16.1 ng/mL

B9: P1AE5718 (antibody, V domains shown)
VH: B5 VH with V2L, A61R, G66A, S75A
VL: B6 VL with Q46K
CAR-J2 EC50 [4]: 105 ng/mL

B10: P1AE5719 (antibody, V domains shown)
VH: B5 VH with V2L, A61R, G66A, S75A
VL: B6 VL
CAR-J2 EC50 [4]: 2.8 ng/mL

B11: P1AE5724 (antibody, V domains shown)
VH: B5 VH
VL: B6 VL with Q46K
CAR-J2 EC50 [4]: 3.6 ng/mL

B12: P1AE5725 (antibody, V domains shown)
VH: B5 VH
VL: B6 VL
CAR-J2 EC50 [4]: 10.9 ng/mL

B13: P1AE5728 (antibody, V domains shown)
VH: B5 VH with V2L, S75A
VL: B5 VL
CAR-J2 EC50 [4]: 5.6 ng/mL

B14: P1AE5729 (antibody, V domains shown)
VH: B5 VH with V2L, S75A
VL: B5 VL with R49K
CAR-J2 EC50 [4]: 61.3 ng/mL

B15: P1AE5723 (antibody, V domains shown)
VH: B5 VH
VL: B5 VL with R49K
CAR-J2 EC50 [4]: 3.7 ng/mL
